# Results reported in US20220380473A1, “ANTI-GAL3 ANTIBODIES AND USES THEREOF” (TrueBinding, Inc., priority 2019, published 2022).
# B1: IMT001: anti-Gal3 monoclonal antibody (Immutics); printed as mIMT001 (IMT001), murine (antibody, V domains shown)
# VH: QIQLVQSGPELKKPGETVKISCKASGYTFTNYGMNWVKQAPGKGLKWMGWINTNTGEPTYVEEFKGRFAFSLETSASTAYLQINNLKNEDTATYFCAPYDNFFAYWGQGTLVTVSA
# VL: DIVITQDELSNPVTSGESVSISCRSSKSLLYKDGKTYLNWFLQRPGQSPQLLIYLMSTHASGVSDRFSGSGSGTDFTLEISRVKAEDVGVYYCQQLVDYPLTFGAGTKLELK
# Tests used:
# Format in all cases: in vivo
# [1] = tested on: α-smooth muscle actin (SMA) and fibronectin; assay: UUO mouse kidney fibrosis, western blot of fibrosis markers (Example 19); conditions: 10 mg/kg i.p., 14 day treatment, vs IgG2b control
# Method: Unilateral […] obstruction (UUO) mouse model was created with 8-week old male C57BL/6 mice. The animals were randomly assigned into three groups (n=5); sham, mouse IgG2b control, and IMT001. […] On day 0, surgery was performed to ligate the left ureter in each animal. Following the surgery, the animals were administrated intraperitoneally either 10 mg/kg of mIgG2b (BioXCell) or IMT001 on day 1, 5 and 10. The animals in the sham group were left untreated. On day 4, 8 and 15 the animals were humanely sacrificed and left kidney tissues were surgically removed and snap frozen for western blot analysis.
# 30 mg snap frozen kidney tissue from 14 day treatment UUO group was homogenized in 500 μl of RIPA buffer (Thermo Scientific). The homogenate was left on ice for 10 minutes and then centrifuged at 12000 rpm for 10 min at 4° C. in 1.5 mL Eppendorf tubes. The supernatant containing protein was collected and was quantified by A280 absorbance with a Nanodrop (ThermoFisher). Protein samples were boiled in 4× sample Buffer containing β-mercaptoethanol (Bio-Rad) for 10 min. […] The membranes were washed three times with PBST and protein bands were detected by enhanced chemiluminescence using standard ECL detection methods as recommended by the manufacturer (Bio-Rad) and developed. […]
# [2] = tested on: a-SMA and fibronectin; assay: N-IF mouse liver fibrosis, western blot of fibrosis markers; conditions: 10 mg/kg every fourth day for 40 days, vs mIgG2b
# Method: N-IF mice were generated by crossing 24αβNOD mice and NOD.Rag2−/− mouse strains. The N-IF mice were backcrossed with the B6.Rag2−/− mouse strains for 10 generations. Mice (male and female) were separated into two groups: IMT001 antibody treatment group and mIgG2b antibody control group. Antibodies were administered to the animals every fourth day for 40 days, at 10 mg/kg body weight and the animals were subsequently sacrificed. All efforts were made to minimize suffering. Liver and Kidney tissues were collected and snap frozen in liquid nitrogen for western blot analysis. Tissue processing and western blot analysis were performed as in Example 19. GAPDH was used a loading control reference.
# [3] = tested on: mouse unilateral ureteral obstruction (UUO) model of kidney fibrosis; assay: Mouse UUO model of kidney fibrosis (Example 32); conditions: administered one day after UUO surgery
# Excerpt: To further evaluate the ability of GAL3-targeted antibodies with the ability to block TIM3-GAL3 assembly to impact fibrosis, we evaluated the impact of humanized IMT001-4 and IMT006-1 in the mouse unilateral ureteral obstruction (UUO) model of kidney fibrosis. Briefly, 8-week-old C57BL/6J male mice were divided into sham, UUO with HuIgG4−, and UUO with HuIMT001-4, HuIMT006-1, and UUO with metformin-treatment. HuIgG4, HuIMT001-4 and HuIMT006-1 were each administered by intraperitoneal route at 10 mg/kg Q2Dx3 whereas metformin (500 mg/kg/day) was administered to mice dissolved in drinking water. In some settings therapeutic antibodies or metformin was administered 1 day before UUO, whereas in other experiments therapeutic antibodies or metformin was administered 1 day after UUO. After 7 days of UUO surgery, mice were sacrificed, left kidney was harvested and fixed with 4% paraformaldehyde for immunohistochemistry (IHC) and blood was collected in Heparin-EDTA tubes for blood biochemistry analysis. Levels of plasma mouse TIM-1/KIM-1/HAVCR were measured using a commercial ELISA kit (Catalog #MKM100; R&D Systems, Minneapolis, Minn.) according to the protocol provided by the manufacturer. Levels of plasma mouse Lipocalin-2/NGAL were measured using a commercial ELISA kit (Catalog #DY1857; R&D Systems, Minneapolis, Minn.) according to the protocol provided by the manufacturer. 5 um sections of fixed kidney specimens were produced and processed for picosirius red staining as described for liver specimens above.
# To evaluate the robustness of TIM3-GAL3 blocking antibodies in reducing kidney fibrosis, the ability of mIMT001 to inhibit fibrosis when administered one day after UUO surgery was evaluated. Following UUO surgery and treatment with isotype or control antibodies, kidney specimens were harvested and stained by IHC for Collagen 1a1 (Col1a1), a marker of kidney fibrosis.
# [4] = tested on: mouse bleomycin-induced lung fibrosis model; assay: Mouse bleomycin-induced lung fibrosis model
# Method: Fibrosis of the lung represents an additional significant form of fibrotic disease with significant health impacts in humans. To evaluate if the anti-fibrotic effects of GAL3-TIM3 blockade extend into the setting of lung fibrosis, a mouse bleomycin-induced lung fibrosis model was evaluated for sensitivity to mIMT001. Briefly, C57Blck/6 male mice were injected intra-tracheally with 30 ug of Bleomycin Sulfate (MP biomedicals, cat #190306) reconstituted in 50 ul of PBS. Mice were treated on day 18, 20, 22, and 24 with mIgG2b isotype control, anti-GAL3 antibody (mIMT001) (10 mg/kg) by tail vein injection, or small molecule TD139 (Med Chem Express, cat #HY-19940) at 10 uM in 50 ul of Captisol (Med Chem Express, cat #HY-17031) injected intra-tracheally. Mice were sacrificed on day 27 and lungs were surgically dissected and fixed in 4% paraformaldehyde for 24 hours, exchanged into 70% ethanol, and embedded in paraffin. Lung fibrosis in fixed specimens was evaluated by Masson's trichrome staining kit (26367) from Electron Microscopy Sciences (Hatfield, Pa.). […] lung sections were affixed to glass slides, After deparaffinization, rehydration in serial ethanol baths. Staining was performed by incubating in Bouin's fixative for 1 h at 56 degree, staining with Briebrich Scarlet/acid fuchsin, Phosphomolybdic Acid-Phosphotungstic Acid and Aniline Blue, then differentiated in acetic acid, prior to their dehydration, clearing and mounting.
molecule,measurement,setting,value
B1,expression of fibrotic markers a-SMA and fibronectin in kidney,[1],reduced expression of both fibrotic markers
same,expression of fibrotic markers a-SMA and fibronectin in liver,[2],significant reductions
same,"Col1a1 staining, image quantification",[3],9.17 intensity units
same,"Col1a1 staining, qualitative",[3],reduced levels of Col1a1 staining
same,overall reduction in Col1a1,[3],48%
same,Ashcroft score,"[4]; 10 mg/kg tail vein day 18, 20, 22, 24, isotype 5.74",4.09
same,decrement in fibrotic injury,[4]; vs isotype control,29%
same,"lung fibrosis, Masson's trichrome",[4]; vs isotype control,substantially reduced
